Laboratory results as given in paper PMC11840598.

Biological target: TM expressed on COS-7 cells from pTM-GFP recombinant plasmids (UniProt P07204)
Experiment: atomic force microscopy

Chain of UniProt P07204 (P07204 19-575): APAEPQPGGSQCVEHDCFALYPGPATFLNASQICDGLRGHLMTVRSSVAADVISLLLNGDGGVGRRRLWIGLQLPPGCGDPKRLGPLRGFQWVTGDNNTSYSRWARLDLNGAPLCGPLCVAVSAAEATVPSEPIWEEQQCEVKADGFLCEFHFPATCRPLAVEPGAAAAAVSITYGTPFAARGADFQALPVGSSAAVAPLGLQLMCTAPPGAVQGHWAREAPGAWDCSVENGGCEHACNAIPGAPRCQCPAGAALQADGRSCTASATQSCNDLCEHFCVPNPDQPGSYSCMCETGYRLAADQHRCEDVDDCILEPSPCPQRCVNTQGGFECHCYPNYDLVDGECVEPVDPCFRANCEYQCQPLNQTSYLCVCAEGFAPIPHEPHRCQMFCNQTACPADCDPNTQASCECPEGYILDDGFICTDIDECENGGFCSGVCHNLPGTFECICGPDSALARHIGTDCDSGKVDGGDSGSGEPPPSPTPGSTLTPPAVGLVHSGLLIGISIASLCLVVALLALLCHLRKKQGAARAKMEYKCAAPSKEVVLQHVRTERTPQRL

interactional force (single-molecule rupture force), with atorvastatin: 84 pN | interactional force (single-molecule rupture force), with pitavastatin: 87 pN | interactional force (single-molecule rupture force), with rosuvastatin: 74.4 pN
Substance: human alpha thrombin (from UniProt P00734 364-622) (enzyme)
